From patent publication US20250236901A1, “METHOD OF DETECTING A MICROORGANISM HAVING HIPPURICASE ACTIVITY” (BIOSYNTH AG, priority 2022, published 2025)

System: Campylobacter jejuni DSM 4688
Test: Detection of hippuricase activity with 4-HHA, 4-aminoantipyrine and oxidizing reagent (color / absorbance at 505 nm)
Type: cell-based
Settings: FIG. 7B; varied 0 to 4 U/mL; 10 mM 4-HHA; 0.5 mM 4-AAP, 4.5 U/mL HRP, 10 mM glucose
Protocol: Campylobacter jejuni DSM 4688 (C. j., catalase positive), Eschericha coli (E. coli, catalase positive) and Campylobacter coli DSM 4689 (C. c., catalase positive), Streptococcus agalactiae ATCC®12386 (S. a., catalase negative) and Streptococcus pyogenes ATCC®19615 (S. p., catalase negative) were cultivated on Columbia Agar with sheep blood (Thermofischer PB5039A) at 37° C. for 48 h, both Campylobacter strains were cultivated under microaerophilic atmosphere (Oxoid, Campylgen CN0025A).
Biomass of colonies were suspended in sterile phosphate buffer (100 mM, pH 7.4) and the optical density OD was determined and set to OD600 of 0.9.
Two hundred μL of cell suspensions were mixed with 25 μL of 4-hydroxyhippuric acid (4-HHA, Bachem, 4005059) stock solution, prepared in 100 mM phosphate buffer pH adjusted to 7.4 in a microtiter plate (SpektraMax M5, Molecular Devices) and incubated for 70 minutes at 37° C. […] The absorbance at 505 nm was recorded with a plate reader at room temperature. […]
Two hundred μL of cell suspensions were mixed with 25 μL of 100 mM 4-hydroxyhippuric acid (4-HHA, Bachem 4005059) prepared in 100 mM phosphate buffer pH adjusted to 7.4) in a microtiter plate and incubated for 1 h at 37° C. […] The absorbance at 505 nm was recorded with a plate reader (SpektraMax M5, Molecular Devices) at room temperature. […]

B1: GOD: glucose oxidase (GOD, Merck G2133), hydrogen peroxide-generating enzyme (protein, UniProt P13006 17-605, looked up)
Glucose oxidase: LPHYIRSNGIEASLLTDPKDVSGRTVDYIIAGGGLTGLTTAARLTENPNISVLVIESGSYESDRGPIIEDLNAYGDIFGSSVDHAYETVELATNNQTALIRSGNGLGGSTLVNGGTWTRPHKAQVDSWETVFGNEGWNWDNVAAYSLQAERARAPNAKQIAAGHYFNASCHGVNGTVHAGPRDTGDDYSPIVKALMSAVEDRGVPTKKDFGCGDPHGVSMFPNTLHEDQVRSDAAREWLLPNYQRPNLQVLTGQYVGKVLLSQNGTTPRAVGVEFGTHKGNTHNVYAKHEVLLAAGSAVSPTILEYSGIGMKSILEPLGIDTVVDLPVGLNLQDQTTATVRSRITSAGAGQGQAAWFATFNETFGDYSEKAHELLNTKLEQWAEEAVARGGFHNTTALLIQYENYRDWIVNHNVAYSELFLDTAGVASFDVWDLLPFTRGYVHILDKDPYLHHFAYDPQYFLNELDLLGQAAATQLARNISNSGAMQTYFAGETIPGDNLAYDADLSAWTEYIPYHFRPNYHGVGTCSMMPKEMGGVVDNAARVYGVQGLRVIDGSIPPTQMSSHVMTVFYAMALKISDAILEDYASMQ
- GOD enzyme activity sufficient for the reaction: 1 U/mL
